From patent US20240209065A1 (SINGLOMICS BEIJING DANXU BIOPHARMACEUTICALS, published 2024)

B1: DXP-604 dimeric IgA1 (antibody)
heavy: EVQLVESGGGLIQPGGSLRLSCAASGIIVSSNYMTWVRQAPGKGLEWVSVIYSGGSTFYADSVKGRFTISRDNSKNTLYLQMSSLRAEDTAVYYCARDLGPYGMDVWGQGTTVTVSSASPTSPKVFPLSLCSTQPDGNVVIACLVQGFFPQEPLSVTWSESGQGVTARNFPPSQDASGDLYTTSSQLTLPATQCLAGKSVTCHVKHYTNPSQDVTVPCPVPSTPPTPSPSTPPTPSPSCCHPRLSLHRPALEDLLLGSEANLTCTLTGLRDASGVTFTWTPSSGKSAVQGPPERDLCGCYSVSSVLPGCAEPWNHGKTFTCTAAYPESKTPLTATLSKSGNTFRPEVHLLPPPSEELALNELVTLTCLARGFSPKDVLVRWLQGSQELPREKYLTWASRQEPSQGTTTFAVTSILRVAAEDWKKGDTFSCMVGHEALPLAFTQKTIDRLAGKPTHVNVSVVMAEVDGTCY
light: DIQLTQSPSFLSASVGDRVTITCRASQGISSDLAWYQQKPGKAPNLLIYAASTLQSGVPSRFSGSGSGTEFTLTISSLQPEDFATYYCQQLNSDLYTFGQGTKLEIKRTVAAPSVFIFPPSDEQLKSGTASVVCLLNNFYPREAKVQWKVDNALQSGNSQESVTEQDSKDSTYSLSSTLTLSKADYEKHKVYACEVTHQGLSSPVTKSFNRGEC
chain: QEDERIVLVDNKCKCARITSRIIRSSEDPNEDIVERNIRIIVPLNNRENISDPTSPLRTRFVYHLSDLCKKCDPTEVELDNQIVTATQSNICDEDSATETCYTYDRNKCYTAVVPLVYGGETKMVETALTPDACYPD
B2: DXP-604 secretory IgA1 (antibody)
heavy: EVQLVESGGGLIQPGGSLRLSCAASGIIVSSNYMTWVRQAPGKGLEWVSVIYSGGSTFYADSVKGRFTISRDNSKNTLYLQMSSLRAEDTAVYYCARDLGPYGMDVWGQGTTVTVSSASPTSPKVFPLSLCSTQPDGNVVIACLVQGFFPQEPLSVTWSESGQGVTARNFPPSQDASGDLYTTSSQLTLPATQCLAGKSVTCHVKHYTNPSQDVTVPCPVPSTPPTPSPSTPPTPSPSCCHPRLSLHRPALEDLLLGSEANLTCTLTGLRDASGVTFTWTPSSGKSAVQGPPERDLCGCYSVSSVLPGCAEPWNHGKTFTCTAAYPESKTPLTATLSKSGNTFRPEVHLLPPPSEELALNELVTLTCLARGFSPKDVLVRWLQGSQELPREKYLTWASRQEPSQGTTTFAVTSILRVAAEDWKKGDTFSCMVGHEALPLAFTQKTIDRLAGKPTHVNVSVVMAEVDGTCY
light: B1 light
chain 1: not shown
chain 2: not shown
B3: XG014 IgG (antibody, V domains shown)
VH: EVQLVQSGAEVKKPGESLKISCKGSGYSFSNYWIGWVRHMPGKGLEWMGIIYPGDSDTRYSPSFQGQVTISVDTSISTAYLQWSSLKASDTAMYYCTRHQYGYNYGYFYYYIDVWGKGTTVTVSS
VL: QSVLTQPPSVSAAPGQKVTISCSGSSSNIGNNPVSWYRQVPGTAPKLLIYDNNKRPSGIPDRFSGSKSGASATLGITGLQTGDEADYYCGTWHTSLSSGVFGGGTKLTVL

Legend:
[1] = molecular target: S protein of authentic SARS-CoV-2 G614 virus (SARS-CoV-2, UniProt P0DTC2 14-1273); assay: cell-based or functional assay
[2] = molecular target: S protein of authentic SARS-CoV-2 G614 virus (SARS-CoV-2, UniProt P0DTC2 14-1273); assay: cell-based or functional assay; remark: listed apart in the source

| Binder | IC50, microneutralization assay with authentic virus [1] [nM] | IC50, microneutralization assay with authentic virus [2] [nM] |
| --- | --- | --- |
| B1 | 0.11 | – |
| B2 | 0.04 | – |
| B3 | – | 0.24 |
